Laboratory results: the supplement of paper PMC9942255
“And” between values parts separate entries of the source, which are not always exact repeats. Identical values can stand only once.

Test system: Bacillus subtilis DB104 (SP-AmyQ fusion secretion)
Assay: AmyQ secretion efficiency, weighted average sort bin (1 = best secretion, 10 = worst) (bin number (weighted average, 1-10)); higher = lower secretion efficiency
Summary of the method: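 B. subtilis DB104 library expressing mature AmyQ fused to designed signal peptides (amyE-integrated) was encapsulated at about 0.3 cells per ~65 nL alginate bead with fluorescein-starch, grown about 13 h at room temperature and nile red stained. Occupied beads were sorted by large-particle flow cytometry into 10 equally populated bins by green/red fluorescence ratio, and each bin's amplicons were Illumina-sequenced. Secretion score is the read-frequency-weighted average bin number, normalised to beads per bin, excluding low-abundance sequences.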

| Sequence | AmyQ secretion efficiency |
| --- | --- |
| MKLAKRVSALTPSTTLAITIKAKEL | 8.5 |
| MKLAKRVSALTPSTTLAITKKAKEL | 6.57 |
| MKLAKRVSALTPSTTLAITLKAKEL | 8.05 |
| MKLAKRVSALTPSTTLAITMKAKEL | 6.37 |
| MKLAKRVSALTPSTTLAITNKAKEL | 7.12 |
| MKLAKRVSALTPSTTLAITQKAKEL | 5.63 |
| MKLAKRVSALTPSTTLAITRKAKEL | 7.25 |
| MKLAKRVSALTPSTTLAITSKAKEL | 8.31 |
| MKLAKRVSALTPSTTLAITTKAKEL | 6.55 |
| MKLAKRVSALTPSTTLAITVKAKEL | 6.82 |
| MKLAKRVSALTPSTTLAITWKAKEL | 5.85 |
| MKLAKRVSALTPSTTLAITYKAKEL | 6.96 |
| MKLAKRVSALTPSTTLAIVAKAKEL | 6.85 |
| MKLAKRVSALTPSTTLAIVIFAKAKEL | 8.15 |
| MKLKKRFLVALTMCGGLFVTPAKAVKT | 7.15 |
| MKLKKRVSMFKKALTMCGGLFVTPAKAVKT | 7.21 |
| MKLKKRVSMFKRRRTMCGGLFVTPAKAVKT | 6.84 |
| MKLKKRVSMFLVALLMCLLLFVSTPAKAVKT | 4.33 |
| MKLKKRVSMFLVALTMCGGLFVEPAKAVKT | 2.69 |
| MKLKKRVSMFLVALTMCGGLFVFAAKAVKT | 5.56 |
| MKLKKRVSMFLVALTMCGGLFVITVFTAVFTPAKAVKT | 7.26 |
| MKLKKRVSMFLVALTMCGGLFVRRAKAVKT | 7.34 |
| MKLKKRVSMFLVALTMCGGLFVRRRKRAKAVKT | 6.98 |
| MKLKKRVSMFLVALTMCGGLFVTAAKAVKT | 4.92 |

| Sequence | AmyQ secretion efficiency |
| --- | --- |
| MKLKKRVSMFLVALTMCGGLFVTPAKAEEE | 2.9 |
| MKLKKRVSMFLVALTMCGGLFVTPAKAVPR | 1.68 |
| MKLKKRVSMFLVALTMCGGLFVTPAKAVST | 2.23 |
| MKLKKRVSMFLVALTMCGGLFVTPAKAVTD | 3.07 |
| MKLKKRVSMFLVALTMCGGLFVTPAKYVKT | 5.18 |
| MKLKKRVSMFLVALTMCGGLFVTPCKAVKT | 2.35 |
| MKLKKRVSMFLVALTMCGGLFVTPFKAVKT | 6.39 |
| MKLKKRVSMFLVALTMCGGLFVTPPFVAKAVKT | 4.47 |
| MKLKKRVSMFLVALTMCGGLFVTPQAKAVKT | 3.89 |
| MKLKKRVSMFLVALTMCGGLFVTPSFPPTAPAKAVKT | 5.25 |
| MKLKKRVSMFLVALTMCGGLFVTPTKAVKT | 3.85 |
| MKLKKRVSMFLVALTMCGGLFVTPVKAVKT | 2.64 |
| MKLKKRVSMFLVALTMCGGLFVTVIIVAKAVKT | 6.35 |
| MKLKKRVSMFLVALTMCGTPAKAVKT | 2.72 |
| MKLKKRVSMFRKKKRKCGGLFVTPAKAVKT | 7.44 |
| MKLKKRVSMGLVALTMCGGLFVTPAKAVKT | 2.55 |
| MKLKKRVSMSSMFLVALTMCGGLFVTPAKAVKT | 1.95 |
| MKLKKRVSMTSKSSGSCRSLFVTPAKAVKT | 7.23 |
| MKLKKRVSMYTQALTMCGGLFVTPAKAVKT | 5.95 |
| MKLKKRVSYFLVALTMCGGLFVTPAKAVKT | 6.42 |
| MKLKSKLFVICLAAAAIFRKKKVSANAEALDF | 6.32 |
| MKLKSKLFVICLAAAAIFTAAGVSANAEALDF | 7.41 and 6.26 |
| MKLKSKLFVICLAAAAIFTAAGVSANNEALDF | 5.76 |
| MKLKSKLFVICLAAATAAGVSANAEALDF | 5.89 |

| Sequence | AmyQ secretion efficiency |
| --- | --- |
| MKLKSKLLLMCLALLIVFVGATTIANAPTH | 8.04 |
| MKLKSKLLLSCLALSTVFVATTIANAKRR | 7.22 |
| MKLKSKLLLSCLALSTVFVATTIANAPRR | 6.72 |
| MKLKSKLLLSCLALSTVFVATTIANAPTR | 6.08 |
| MKLKSKLLLSCLALSTVFVATTIANCPTH | 7.55 |
| MKLKSKLLLSCLALSTVFVATTIANEPTH | 7.21 |
| MKLKSKLLLSCLALSTVFVATTIANHPTH | 4.89 |
| MKLKSKLLLSCLALSTVFVATTIANIPTH | 5.95 |
| MKLKSKLLLSCLALSTVFVATTIANLPTH | 6.34 |
| MKLKSKLLLSCLALSTVFVATTIANNPTH | 5.17 |
| MKLKSKLLLSCLALSTVFVATTIANSPTH | 3.78 |
| MKLKSKLLLSCLALSTVFVATTICNAPTH | 5.85 |
| MKLKSKLLLSCLALSTVFVATTIGNAPTH | 7.24 |
| MKLKSKLLLSCLALSTVFVATTIKNAPTH | 6.58 |
| MKLKSKLLLSCLALSTVFVATTILNAPTH | 6.08 |
| MKLKSKLLLSCLALSTVFVATTIVNAPTH | 5.07 |
| MKLKSKLLLSCLALSTVFVATTIWNAPTH | 6.19 |
| MKLKSKLLLSCLALSTVFVLFSTATTIANAPTH | 4.84 |
| MKLKSKLLLSCLALSTVFVRKRIANAPTH | 6.91 |
| MKLKSKLRKKCRRRSTVFVATTIANAPTH | 7.48 |
| MKLKSKYKGGCYAAAAIFTAAGVSANAEALDF | 7.31 |
| MKLKSKYYKGCRSTSTVFVATTIANAPTH | 7.35 |
| MKLRKMVLTGSVLSLGLLVSASPAFATSP | 1.54 |
| MKLRKSTKYQSYSLGLLVSASPAFATSP | 6.69 |

| Sequence | AmyQ secretion efficiency |
| --- | --- |
| MKLRKVLTGSVLSLGLLDDEEDDAFATSP | 7.86 |
| MKLRKVLTGSVLSLGLLEKDSPAFATSP | 6.38 |
| MKLRKVLTGSVLSLGLLIVSASPAFATSP | 2.48 |
| MKLRKVLTGSVLSLGLLKRRRKKAFATSP | 5.35 |
| MKLRKVLTGSVLSLGLLPPSSPAFATSP | 1.49 |
| MKLRKVLTGSVLSLGLLRKKSPAFATSP | 8.19 |
| MKLRKVLTGSVLSLGLLVSASPAFAEEE | 2.06 |
| MKLRKVLTGSVLSLGLLVSASPAFARKR | 5.66 |
| MKLRKVLTGSVLSLGLLVSASPAFATED | 2.67 |
| MKLRKVLTGSVLSLGLLVSASPAFATRK | 2.53 |
| MKLRKVLTGSVLSLGLLVSASPAFATSD | 2.17 |
| MKLRKVLTGSVLSLGLLVSASPAFATSR | 1.56 |
| MKLRKVLTGSVLSLGLLVSASPIFATSP | 1.63 |
| MKLRKVLTGSVLSLGLLVSASPNFATSP | 5.36 |
| MKLRKVLTGSVLSLGLLVSASPTFATSP | 1.93 |
| MKLRKVLTGSVLSLVSASPAFATSP | 3.59 |
| MKLRKVRKGSVLSLGLLVSASPAFATSP | 4.34 |
| MKLRKVRRRKKRSLGLLVSASPAFATSP | 8.72 |
| MKLSVKFLFIAGVLTVAAAAMTAKMYATAKGN | 4.51 |
| MKLSVKIAGVLTVAAAAMDDEDDEATAKGN | 7.46 |
| MKLSVKIAGVLTVAAAAMEDDMYATAKGN | 6.49 |
| MKLSVKIAGVLTVAAAAMEEKMYATAKGN | 7.66 |
| MKLSVKIAGVLTVAAAAMIAIATTAKMYATAKGN | 5.63 |
| MKLSVKIAGVLTVAAAAMKATAKGN | 7.76 |
